Experimental data from patent publication US11965039B2, “Compstatin analogues and their medical uses” (priority 2018, dated 2024).
Positions of bridges follow the written chain, without caps; N, C: chain ends. Non-standard residues stand in square brackets, D forms with d. Trp(1-Me) = Cn1cc(C[C@H](N)C(=O)O)c2ccccc21; 1Nal = N[C@@H](Cc1cccc2ccccc12)C(=O)O; 2Nal = N[C@@H](Cc1ccc2ccccc2c1)C(=O)O; Sar = CNCC(=O)O

B1: Compound 40 (peptide)
peptide: Ac-GSAICIWQDWGEHRC[Sar]E-NH2
modifications: disulfide 5-15
SMILES: CC[C@H](C)[C@H](NC(=O)[C@H](C)NC(=O)[C@H](CO)NC(=O)CNC(C)=O)C(=O)N[C@H]1CSSC[C@@H](C(=O)N(C)CC(=O)N[C@@H](CCC(=O)O)C(N)=O)NC(=O)[C@H](CCCNC(=N)N)NC(=O)[C@H](Cc2c[nH]cn2)NC(=O)[C@H](CCC(=O)O)NC(=O)CNC(=O)[C@H](Cc2c[nH]c3ccccc23)NC(=O)[C@H](CC(=O)O)NC(=O)[C@H](CCC(N)=O)NC(=O)[C@H](Cc2c[nH]c3ccccc23)NC(=O)[C@H]([C@@H](C)CC)NC1=O
B2: Compound 55 (peptide)
peptide: Ac-EGSAICIWQDWGEHRCTE-NH2
modifications: disulfide 6-16
SMILES: CC[C@H](C)[C@H](NC(=O)[C@H](C)NC(=O)[C@H](CO)NC(=O)CNC(=O)[C@H](CCC(=O)O)NC(C)=O)C(=O)N[C@H]1CSSC[C@@H](C(=O)N[C@H](C(=O)N[C@@H](CCC(=O)O)C(N)=O)[C@@H](C)O)NC(=O)[C@H](CCCNC(=N)N)NC(=O)[C@H](Cc2c[nH]cn2)NC(=O)[C@H](CCC(=O)O)NC(=O)CNC(=O)[C@H](Cc2c[nH]c3ccccc23)NC(=O)[C@H](CC(=O)O)NC(=O)[C@H](CCC(N)=O)NC(=O)[C@H](Cc2c[nH]c3ccccc23)NC(=O)[C@H]([C@@H](C)CC)NC1=O
B3: Compound 42 (peptide)
peptide: Ac-SAICIWQDWGEHRCTEG-NH2
modifications: disulfide 4-14
SMILES: CC[C@H](C)[C@H](NC(=O)[C@H](C)NC(=O)[C@H](CO)NC(C)=O)C(=O)N[C@H]1CSSC[C@@H](C(=O)N[C@H](C(=O)N[C@@H](CCC(=O)O)C(=O)NCC(N)=O)[C@@H](C)O)NC(=O)[C@H](CCCNC(=N)N)NC(=O)[C@H](Cc2c[nH]cn2)NC(=O)[C@H](CCC(=O)O)NC(=O)CNC(=O)[C@H](Cc2c[nH]c3ccccc23)NC(=O)[C@H](CC(=O)O)NC(=O)[C@H](CCC(N)=O)NC(=O)[C@H](Cc2c[nH]c3ccccc23)NC(=O)[C@H]([C@@H](C)CC)NC1=O
B4: Compound 37 (peptide)
peptide: Ac-KEKICIWQDWGEHRCTEKE-NH2
modifications: disulfide 5-15
SMILES: CC[C@H](C)[C@@H]1NC(=O)[C@@H](NC(=O)[C@@H](NC(=O)[C@H](CCCCN)NC(=O)[C@H](CCC(=O)O)NC(=O)[C@H](CCCCN)NC(C)=O)[C@@H](C)CC)CSSC[C@@H](C(=O)N[C@H](C(=O)N[C@@H](CCC(=O)O)C(=O)N[C@@H](CCCCN)C(=O)N[C@@H](CCC(=O)O)C(N)=O)[C@@H](C)O)NC(=O)[C@H](CCCNC(=N)N)NC(=O)[C@H](Cc2c[nH]cn2)NC(=O)[C@H](CCC(=O)O)NC(=O)CNC(=O)[C@H](Cc2c[nH]c3ccccc23)NC(=O)[C@H](CC(=O)O)NC(=O)[C@H](CCC(N)=O)NC(=O)[C@H](Cc2c[nH]c3ccccc23)NC1=O
B5: Compound 46 (peptide)
peptide: Ac-ESSAICIWQDWGAHRCT-NH2
modifications: disulfide 6-16
SMILES: CC[C@H](C)[C@H](NC(=O)[C@H](C)NC(=O)[C@H](CO)NC(=O)[C@H](CO)NC(=O)[C@H](CCC(=O)O)NC(C)=O)C(=O)N[C@H]1CSSC[C@@H](C(=O)N[C@H](C(N)=O)[C@@H](C)O)NC(=O)[C@H](CCCNC(=N)N)NC(=O)[C@H](Cc2c[nH]cn2)NC(=O)[C@H](C)NC(=O)CNC(=O)[C@H](Cc2c[nH]c3ccccc23)NC(=O)[C@H](CC(=O)O)NC(=O)[C@H](CCC(N)=O)NC(=O)[C@H](Cc2c[nH]c3ccccc23)NC(=O)[C@H]([C@@H](C)CC)NC1=O
B6: Compound 39 (peptide)
peptide: Ac-ICIWQDWGEHRCTEGK-NH2
modifications: disulfide 2-12
SMILES: CC[C@H](C)[C@H](NC(C)=O)C(=O)N[C@H]1CSSC[C@@H](C(=O)N[C@H](C(=O)N[C@@H](CCC(=O)O)C(=O)NCC(=O)N[C@@H](CCCCN)C(N)=O)[C@@H](C)O)NC(=O)[C@H](CCCNC(=N)N)NC(=O)[C@H](Cc2c[nH]cn2)NC(=O)[C@H](CCC(=O)O)NC(=O)CNC(=O)[C@H](Cc2c[nH]c3ccccc23)NC(=O)[C@H](CC(=O)O)NC(=O)[C@H](CCC(N)=O)NC(=O)[C@H](Cc2c[nH]c3ccccc23)NC(=O)[C@H]([C@@H](C)CC)NC1=O
B7: Compound 47 (peptide)
peptide: Ac-ICIWQDWGAHRCTGAES-NH2
modifications: disulfide 2-12
SMILES: CC[C@H](C)[C@H](NC(C)=O)C(=O)N[C@H]1CSSC[C@@H](C(=O)N[C@H](C(=O)NCC(=O)N[C@@H](C)C(=O)N[C@@H](CCC(=O)O)C(=O)N[C@@H](CO)C(N)=O)[C@@H](C)O)NC(=O)[C@H](CCCNC(=N)N)NC(=O)[C@H](Cc2c[nH]cn2)NC(=O)[C@H](C)NC(=O)CNC(=O)[C@H](Cc2c[nH]c3ccccc23)NC(=O)[C@H](CC(=O)O)NC(=O)[C@H](CCC(N)=O)NC(=O)[C@H](Cc2c[nH]c3ccccc23)NC(=O)[C@H]([C@@H](C)CC)NC1=O
B8: Compound 52 (peptide)
peptide: Ac-ICI[2Nal]QDWGEHRCTGAES-NH2
modifications: disulfide 2-12
SMILES: CC[C@H](C)[C@H](NC(C)=O)C(=O)N[C@H]1CSSC[C@@H](C(=O)N[C@H](C(=O)NCC(=O)N[C@@H](C)C(=O)N[C@@H](CCC(=O)O)C(=O)N[C@@H](CO)C(N)=O)[C@@H](C)O)NC(=O)[C@H](CCCNC(=N)N)NC(=O)[C@H](Cc2c[nH]cn2)NC(=O)[C@H](CCC(=O)O)NC(=O)CNC(=O)[C@H](Cc2c[nH]c3ccccc23)NC(=O)[C@H](CC(=O)O)NC(=O)[C@H](CCC(N)=O)NC(=O)[C@H](Cc2ccc3ccccc3c2)NC(=O)[C@H]([C@@H](C)CC)NC1=O
B9: Compound 38 (peptide)
peptide: Ac-EKGICIWQDWGEHRCTEKP-NH2
modifications: disulfide 5-15
SMILES: CC[C@H](C)[C@H](NC(=O)CNC(=O)[C@H](CCCCN)NC(=O)[C@H](CCC(=O)O)NC(C)=O)C(=O)N[C@H]1CSSC[C@@H](C(=O)N[C@H](C(=O)N[C@@H](CCC(=O)O)C(=O)N[C@@H](CCCCN)C(=O)N2CCC[C@H]2C(N)=O)[C@@H](C)O)NC(=O)[C@H](CCCNC(=N)N)NC(=O)[C@H](Cc2c[nH]cn2)NC(=O)[C@H](CCC(=O)O)NC(=O)CNC(=O)[C@H](Cc2c[nH]c3ccccc23)NC(=O)[C@H](CC(=O)O)NC(=O)[C@H](CCC(N)=O)NC(=O)[C@H](Cc2c[nH]c3ccccc23)NC(=O)[C@H]([C@@H](C)CC)NC1=O
B10: Compound 44 (peptide)
peptide: Ac-EGSAICIWQDWGEHRC[Sar]EGE-NH2
modifications: disulfide 6-16
SMILES: CC[C@H](C)[C@H](NC(=O)[C@H](C)NC(=O)[C@H](CO)NC(=O)CNC(=O)[C@H](CCC(=O)O)NC(C)=O)C(=O)N[C@H]1CSSC[C@@H](C(=O)N(C)CC(=O)N[C@@H](CCC(=O)O)C(=O)NCC(=O)N[C@@H](CCC(=O)O)C(N)=O)NC(=O)[C@H](CCCNC(=N)N)NC(=O)[C@H](Cc2c[nH]cn2)NC(=O)[C@H](CCC(=O)O)NC(=O)CNC(=O)[C@H](Cc2c[nH]c3ccccc23)NC(=O)[C@H](CC(=O)O)NC(=O)[C@H](CCC(N)=O)NC(=O)[C@H](Cc2c[nH]c3ccccc23)NC(=O)[C@H]([C@@H](C)CC)NC1=O
B11: Compound 51 (peptide)
peptide: Ac-ICI[Trp(1-Me)]QDWGEHRCTGAES-NH2
modifications: disulfide 2-12
SMILES: CC[C@H](C)[C@H](NC(C)=O)C(=O)N[C@H]1CSSC[C@@H](C(=O)N[C@H](C(=O)NCC(=O)N[C@@H](C)C(=O)N[C@@H](CCC(=O)O)C(=O)N[C@@H](CO)C(N)=O)[C@@H](C)O)NC(=O)[C@H](CCCNC(=N)N)NC(=O)[C@H](Cc2c[nH]cn2)NC(=O)[C@H](CCC(=O)O)NC(=O)CNC(=O)[C@H](Cc2c[nH]c3ccccc23)NC(=O)[C@H](CC(=O)O)NC(=O)[C@H](CCC(N)=O)NC(=O)[C@H](Cc2cn(C)c3ccccc23)NC(=O)[C@H]([C@@H](C)CC)NC1=O
B12: Compound 45 (peptide)
peptide: Ac-EGSAFCIWQDWGEHRC[Sar]E-NH2
modifications: disulfide 6-16
SMILES: CC[C@H](C)[C@@H]1NC(=O)[C@@H](NC(=O)[C@H](Cc2ccccc2)NC(=O)[C@H](C)NC(=O)[C@H](CO)NC(=O)CNC(=O)[C@H](CCC(=O)O)NC(C)=O)CSSC[C@@H](C(=O)N(C)CC(=O)N[C@@H](CCC(=O)O)C(N)=O)NC(=O)[C@H](CCCNC(=N)N)NC(=O)[C@H](Cc2c[nH]cn2)NC(=O)[C@H](CCC(=O)O)NC(=O)CNC(=O)[C@H](Cc2c[nH]c3ccccc23)NC(=O)[C@H](CC(=O)O)NC(=O)[C@H](CCC(N)=O)NC(=O)[C@H](Cc2c[nH]c3ccccc23)NC1=O
B13: Compound 41 (peptide)
peptide: Ac-SAICIWQDWGEHRC[Sar]E-NH2
modifications: disulfide 4-14
SMILES: CC[C@H](C)[C@H](NC(=O)[C@H](C)NC(=O)[C@H](CO)NC(C)=O)C(=O)N[C@H]1CSSC[C@@H](C(=O)N(C)CC(=O)N[C@@H](CCC(=O)O)C(N)=O)NC(=O)[C@H](CCCNC(=N)N)NC(=O)[C@H](Cc2c[nH]cn2)NC(=O)[C@H](CCC(=O)O)NC(=O)CNC(=O)[C@H](Cc2c[nH]c3ccccc23)NC(=O)[C@H](CC(=O)O)NC(=O)[C@H](CCC(N)=O)NC(=O)[C@H](Cc2c[nH]c3ccccc23)NC(=O)[C@H]([C@@H](C)CC)NC1=O
B14: Compound 56 (peptide)
peptide: Ac-EGSAFCI[1Nal]QDWGEHRCTE-NH2
modifications: disulfide 6-16
SMILES: CC[C@H](C)[C@@H]1NC(=O)[C@@H](NC(=O)[C@H](Cc2ccccc2)NC(=O)[C@H](C)NC(=O)[C@H](CO)NC(=O)CNC(=O)[C@H](CCC(=O)O)NC(C)=O)CSSC[C@@H](C(=O)N[C@H](C(=O)N[C@@H](CCC(=O)O)C(N)=O)[C@@H](C)O)NC(=O)[C@H](CCCNC(=N)N)NC(=O)[C@H](Cc2c[nH]cn2)NC(=O)[C@H](CCC(=O)O)NC(=O)CNC(=O)[C@H](Cc2c[nH]c3ccccc23)NC(=O)[C@H](CC(=O)O)NC(=O)[C@H](CCC(N)=O)NC(=O)[C@H](Cc2cccc3ccccc23)NC1=O

What follows are binders tested against Human C3 (Complement tech cat #A113c) (human, UniProt P01024 23-1663) (assay: cell-based or functional assay).
Human C3 (Complement tech cat #A113c), sequence (P01024 23-1663 limits assumed): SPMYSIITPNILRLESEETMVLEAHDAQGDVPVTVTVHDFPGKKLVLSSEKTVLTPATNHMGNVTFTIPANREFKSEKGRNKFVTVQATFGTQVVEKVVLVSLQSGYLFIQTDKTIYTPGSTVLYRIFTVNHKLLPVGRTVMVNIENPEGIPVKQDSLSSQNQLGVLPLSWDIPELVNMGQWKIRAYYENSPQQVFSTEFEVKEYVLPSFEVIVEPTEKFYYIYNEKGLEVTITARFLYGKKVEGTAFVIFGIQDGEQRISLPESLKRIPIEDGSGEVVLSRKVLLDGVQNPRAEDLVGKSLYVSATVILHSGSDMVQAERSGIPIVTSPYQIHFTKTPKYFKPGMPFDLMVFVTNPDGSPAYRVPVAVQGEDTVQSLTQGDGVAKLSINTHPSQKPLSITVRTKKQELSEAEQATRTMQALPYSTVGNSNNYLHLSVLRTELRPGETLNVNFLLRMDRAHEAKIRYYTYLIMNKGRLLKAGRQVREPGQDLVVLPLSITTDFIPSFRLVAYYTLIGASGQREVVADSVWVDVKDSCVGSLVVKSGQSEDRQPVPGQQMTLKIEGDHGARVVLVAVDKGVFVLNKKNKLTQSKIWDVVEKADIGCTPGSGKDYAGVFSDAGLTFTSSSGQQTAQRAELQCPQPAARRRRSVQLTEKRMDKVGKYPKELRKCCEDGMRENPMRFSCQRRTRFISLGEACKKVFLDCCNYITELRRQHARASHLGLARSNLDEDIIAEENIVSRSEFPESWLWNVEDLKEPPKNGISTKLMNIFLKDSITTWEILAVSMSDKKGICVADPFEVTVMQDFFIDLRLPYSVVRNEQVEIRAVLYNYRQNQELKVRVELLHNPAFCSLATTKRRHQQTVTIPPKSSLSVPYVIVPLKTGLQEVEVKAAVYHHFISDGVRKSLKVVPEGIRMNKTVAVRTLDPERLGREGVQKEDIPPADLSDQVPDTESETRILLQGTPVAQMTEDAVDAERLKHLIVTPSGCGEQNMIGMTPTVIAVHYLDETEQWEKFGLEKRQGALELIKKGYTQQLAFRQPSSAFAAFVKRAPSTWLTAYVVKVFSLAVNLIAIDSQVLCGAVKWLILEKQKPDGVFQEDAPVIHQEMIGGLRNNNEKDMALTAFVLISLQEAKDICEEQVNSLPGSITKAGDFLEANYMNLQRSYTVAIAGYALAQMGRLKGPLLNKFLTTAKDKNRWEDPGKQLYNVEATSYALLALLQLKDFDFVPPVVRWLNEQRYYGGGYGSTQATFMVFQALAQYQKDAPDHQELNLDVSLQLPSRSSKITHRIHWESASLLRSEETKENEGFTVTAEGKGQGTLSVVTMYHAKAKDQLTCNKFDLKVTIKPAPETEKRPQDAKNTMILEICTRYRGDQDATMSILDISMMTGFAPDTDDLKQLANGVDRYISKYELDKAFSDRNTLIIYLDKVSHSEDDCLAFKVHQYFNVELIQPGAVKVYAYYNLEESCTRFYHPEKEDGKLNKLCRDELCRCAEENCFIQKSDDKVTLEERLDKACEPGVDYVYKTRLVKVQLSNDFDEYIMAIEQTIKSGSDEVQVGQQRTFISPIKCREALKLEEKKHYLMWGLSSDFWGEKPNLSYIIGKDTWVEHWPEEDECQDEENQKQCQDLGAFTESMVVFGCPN

B1 and B2 cannot be ordered by “inhibition of hemolysis IC50” value: less than 250 nM for the first, less than 250 nM for the second.

B3 and B4 cannot be ordered by “inhibition of hemolysis IC50” value: less than 250 nM for the first, less than 250 nM for the second.

B5 and B6 cannot be ordered by “inhibition of hemolysis IC50” value: less than 100 nM for the first, less than 100 nM for the second.

B7 and B8 cannot be ordered by “inhibition of hemolysis IC50” value: less than 100 nM for the first, less than 100 nM for the second.

B9 and B10 cannot be ordered by “inhibition of hemolysis IC50” value: less than 250 nM for the first, less than 250 nM for the second.

B11 and B12 cannot be ordered by “inhibition of hemolysis IC50” value: less than 100 nM for the first, less than 100 nM for the second.

B13 and B14 cannot be ordered by “inhibition of hemolysis IC50” value: less than 250 nM for the first, less than 100 nM for the second.
